This is an account of results in US11202837B2, “Biological materials and uses thereof” (Antikor Biopharma Limited, priority 2014, dated 2021).

Like-named read-outs stand apart in the source and are kept apart here. Where a SMILES comes first, the peptide text is derived from it. [ ]: non-standard residue; d: D form. The star is where a group is joined. ξ: configuration not given here. ξNMe2Val = CC(C)C(C(=O)*)N(C)C; NMeV = CN[CH](C(=O)O)C(C)C; Ava = NCCCCC(=O)O

The test system of one experiment is U87 cells. As to the kind of experiment: Cell killing assay (MTS), U87 cells. In kind it is cell-based. The conditions noted are these: Homo sapiens, U-87 MG, 96 h. As for the experimental part: (§1) SKBr3, human breast cancer cell line, high HER2 expression levels, up to 1,000,000 receptors per cell [Lazar G A, et al Proc Natl Acad Sci USA. […] When confluency was 70-80%, cells were washed with PBS (2×10 ml) and incubated with trypsin for 5-7 min. Complete media was added and the cells were resuspended by pipetting. The cells were recovered by centrifugation (2 min, 2000 rpm), the supernatant was discarded, and the cells were resuspended in complete DMEM (5 ml). The cells were then counted using a haemocytometer and diluted accordingly. They were plated at 4500 cells/well (200 μl) using attachment factor and incubated overnight at 37° C., 5% CO2 in a humidified atmosphere. U87 is a non-HER2 expressing glioblastoma cell line and was grown in a similar way, plated at 1000 cells/well.
The cells were exposed to the various ADCs diluted in complete media for 96 hours at 37° C., 5% CO2 in a humidified atmosphere. Cell viability was measured using the Promega Aqueous Cell-titre-96™ aqueous one solution cell proliferation kit according to manufacturer's instructions. Briefly, the media was removed and 100 μl of complete phenol red free media, pre-combined with MTS reagent, was added to the cells (20 μl of reagent per 100 μl of media). The plates were read on an ELISA plate reader at 490 nm after a 2 hr incubation in the dark (5% CO2, 37° C.).
(§2) The data (absorption units) were converted to % cell survival by using the untreated controls as the 100% cell survival and the Triton X-100 controls as the 100% cell death. The average absorption value for the latter was subtracted from all the rest of the data in order to get a suitable baseline. The averages were converted to survival and standard error values were obtained for each n value (as a % cell survival). […] Experiments were repeated at least 3 times for each compound tested and a set or an average of the data was plotted and fitted to obtain a dose response curve.
(§3) The cells were recovered by centrifugation (2 min, 2000 rpm), the supernatant was discarded, and the cells were resuspended in complete McCoy's 5A (5 ml). The cells were then counted using a haemocytometer and diluted accordingly. They were plated at 5000 cells/well (200 μl) using attachment factor and incubated overnight at 37° C., 5% CO2 in a humidified atmosphere. U87 is a non-HER2 expressing glioblastoma cell line [Zitron I M et al (2013) BMC Cancer 13:83] and was grown in a similar way, plated at 1000 cells/well (using DMEM media). BT474 is a HER2 expressing breast cancer cell line [Brockhoff G et al (2007) Cell Prolif 40:488-507] and was grown in a similar way, plated at 7500 cells/well (using RPMI media). NCI-N87 is a HER2 expressing gastric cancer cell line [Yamashita-Kashima Y et al (2013) Oncol. Rep 30:1087-93] and was grown in a similar way, plated at 7500 cells/well (using RPMI media).
(§4) The cells were exposed to the various ADCs diluted in complete media for 96 hours at 37° C., 5% CO2 in a humidified atmosphere. Cell viability was measured using the Promega Aqueous Cell-titre-96™ aqueous one solution cell proliferation kit (MTS reagent) according to manufacturer's instructions. Briefly, the media was removed and 100 μl of complete phenol red free media, pre-combined with MTS reagent, was added to the cells (20 μl of reagent per 100 μl of media). The plates were read on an ELISA plate reader at 490 nm after a 2 hr incubation in the dark (5% CO2, 37° C.).
(§5) The data (absorption units) were converted to % cell survival by using the untreated controls as the 100% cell survival and the Triton X-100 controls as the 100% cell death. The average absorption value for the latter was subtracted from all the rest of the data in order to get a suitable baseline. The averages were converted to survival and standard error values were obtained for each n value (as a % cell survival).

A further experiment concerns SKBr3 cells. As to the kind of experiment: Cell killing assay (MTS), SKBr3 cells. In kind it is cell-based, human. As for the experimental part: as §1
[…] Cell viability was measured using the Promega Aqueous Cell-titre-96™ aqueous one solution cell proliferation kit according to manufacturer's instructions. Briefly, the media was removed and 100 μl of complete phenol red free media, pre-combined with MTS reagent, was added to the cells (20 μl of reagent per 100 μl of media). The plates were read on an ELISA plate reader at 490 nm after a 2 hr incubation in the dark (5% CO2, 37° C.).
as §2, §3
[…] Cell viability was measured using the Promega Aqueous Cell-titre-96™ aqueous one solution cell proliferation kit (MTS reagent) according to manufacturer's instructions. Briefly, the media was removed and 100 μl of complete phenol red free media, pre-combined with MTS reagent, was added to the cells (20 μl of reagent per 100 μl of media). The plates were read on an ELISA plate reader at 490 nm after a 2 hr incubation in the dark (5% CO2, 37° C.).
as §5

For a further experiment, the system named is BT474 cells. The experiment is described as follows: Cell killing assay (MTS), BT474 cells. The class given is cell-based, human. The conditions noted are these: BT474 Cells (HER2++), 96 hours; for IC50: read-out: IC50. As for the experimental part:
as §3, §4
The data (absorption units) were converted to % cell survival by using the untreated controls as the 100% cell survival and the Triton X-100 controls as the 100% cell death. The average absorption value for the latter was subtracted from all the rest of the data in order to get a suitable baseline. The averages were converted to survival and standard error values were obtained for each n value (as a % cell survival). […] Experiments were repeated at least 3 times for each compound tested and a set or an average of the data was plotted and fitted to obtain a dose-response curve.

The mark [1] stands for this setting: SKBr3 Cells (HER2+++), 96 hours, Table 47.
Where [2] appears, read: SKBr3 Cells (HER2+++), 96 hours, Table 47, read-out: IC50.

As a reminder, the IC50 is the midpoint of a concentration-inhibition curve. Turning to `CC(C)C(NC(=O)C(C(C)C)N(C)C)C(=O)N(C)C(C(=O)N1CCCC1C(=O)N1CCCC1C(=O)NCCCCC(=O)O)C(C)C` (stereo not drawn) [Free P5C5 (acid) drug, P5C5] (ξNMe2Val-V[NMeV]PP[Ava]-OH; configuration not given here), the IC50 in the experiment on U87 cells (read-out: IC50 nM U87 Cells (HER2−)) stood at 7300 ± 900 nM; with SKBr3 cells (Homo sapiens, SK-BR-3, 96 h, read-out: IC50 nM SKBr3 Cells (HER2+++)), 2200 ± 400 nM.

In the case of `COc1cc2cc(c1Cl)N(C)C(=O)C[C@H](OC(=O)[C@H](C)N(C)C(=O)CCS)[C@]1(C)O[C@H]1[C@H](C)[C@@H]1C[C@@](O)(NC(=O)O1)[C@H](OC)/C=C/C=C(\C)C2` [Free drug DM1], the IC50 in the experiment on U87 cells (read-out: IC50 nM) stood at 50.7 nM; with SKBr3 cells (Homo sapiens, SK-BR-3, 96 h, read-out: IC50 nM), 47.6 nM.

B1: scFv (TCT)-MMAF DAR 8 (conjugate)
scFv: SGSGGSGQVQLVQSGAEVKKPGESLKISCKGSGYSFTSYWIAWVRQMPGKGLEYMGLIYPGDSDTKYSPSFQGQVTISVDKSVSTAYLQWSSLKPSDSAVYFCARHDVGYCSSSNCAAWPEYFQHWGQGTLVTVSSGGGGSGGGGSGGGGSQSVLTQPPSVSAAPGQKVTISCSGSSSNIGNNYVSWYQQLPGTAPKLLIYGHTNRPAGVPDRFSGSKSGTSASLAISGFRSEDEADYYCAAWDDSLSGWVFGGGTKLTVLMASMTGGQQMG
With B1, the results for the “IC50 μg/ml” value in the experiment with BT474 cells (Table 47) and in the experiment on SKBr3 cells (setting [1]) were 0.02 µg/mL and 0.0053 µg/mL, respectively. Besides, the results for the IC50 with BT474 cells (Table 47) and with SKBr3 cells (setting [2]) were 0.714 nM and 0.189 nM, respectively.

B2: scFv (TCT1067)-MMAF DAR 8.7 (conjugate)
scFv: SGSGGSGQVQLVQSGAEVKKPGESLKISCKGSGYSFTSYWIAWVRQMPGKGLEYMGLIYPGDSDTKYSPSFQGQVTISVDKSVSTAYLQWSSLKPSDSAVYFCARHDVGYCTDRTCAAWPEWLGVWGQGTLVTVSSGGGGSGGGGSGGGGSQSVLTQPPSVSAAPGQKVTISCSGSSSNIGNNYVSWYQQLPGTAPKLLIYGHTNRPAGVPDRFSGSKSGTSASLAISGFRSEDEADYYCASWDYTLSGWVFGGGTKLTVLMASMTGGQQMG
Take B2: the figures for the “IC50 μg/ml” value in the experiment with BT474 cells (Table 47) and with SKBr3 cells (setting [1]) were 0.001 µg/mL and 0.00091 µg/mL, respectively. The IC50 with BT474 cells (Table 47) was 0.0357 nM; with SKBr3 cells (setting [2]), 0.0325 nM.

B3: scFv (TCT1067)-P5C5 DAR 12.5 (conjugate)
scFv: SGSGGSGQVQLVQSGAEVKKPGESLKISCKGSGYSFTSYWIAWVRQMPGKGLEYMGLIYPGDSDTKYSPSFQGQVTISVDKSVSTAYLQWSSLKPSDSAVYFCARHDVGYCTDRTCAAWPEWLGVWGQGTLVTVSSGGGGSGGGGSGGGGSQSVLTQPPSVSAAPGQKVTISCSGSSSNIGNNYVSWYQQLPGTAPKLLIYGHTNRPAGVPDRFSGSKSGTSASLAISGFRSEDEADYYCASWDYTLSGWVFGGGTKLTVLMASMTGGQQMG
As to B3, the “IC50 μg/ml” value in the experiment with BT474 cells (Table 48) stood at 0.3 µg/mL; in the experiment with SKBr3 cells (SKBr3 Cells (HER2+++), 96 hours, Table 48), 0.04 µg/mL. Also, the IC50 was 10.7 nM in the experiment with BT474 cells (Table 48) and 1.42 nM in the experiment on SKBr3 cells (SKBr3 Cells (HER2+++), 96 hours, Table 48, read-out: IC50).

B4: scFv (TCT1067)-P5C5 DAR 10.6 (conjugate)
scFv: SGSGGSGQVQLVQSGAEVKKPGESLKISCKGSGYSFTSYWIAWVRQMPGKGLEYMGLIYPGDSDTKYSPSFQGQVTISVDKSVSTAYLQWSSLKPSDSAVYFCARHDVGYCTDRTCAAWPEWLGVWGQGTLVTVSSGGGGSGGGGSGGGGSQSVLTQPPSVSAAPGQKVTISCSGSSSNIGNNYVSWYQQLPGTAPKLLIYGHTNRPAGVPDRFSGSKSGTSASLAISGFRSEDEADYYCASWDYTLSGWVFGGGTKLTVLMASMTGGQQMG
For B4, in the experiment on BT474 cells (Table 48), the “IC50 μg/ml” value amounted to 0.5 µg/mL and the IC50 was 17.9 nM.
